Consider 30 substances from the Human Domainome abundance scans (Beltran et al. 2025).

± gives the uncertainty stated by the source.

The nature of this data set: abundance fitness (aPCA) (normalised: wild type 0, dead -1); higher = more abundant; growth selection in yeast, the domain comes from the species named. The note with it: Homo sapiens.
“Scaffold attachment factor B1 V48E, Q15424” displayed an abundance fitness of -0.231 ± 0.075. The result for “Scaffold attachment factor B1 V48F, Q15424” reads -0.157 ± 0.085. Consider “Scaffold attachment factor B1 V48G, Q15424”, for which the abundance fitness is -0.195 ± 0.057.

On to “Scaffold attachment factor B1 V48H, Q15424”, for which the abundance fitness was -0.125 ± 0.08. In turn, “Scaffold attachment factor B1 V48K, Q15424” registered an abundance fitness of -0.118 ± 0.095.

Regarding “Scaffold attachment factor B1 V48L, Q15424”, the abundance fitness was -0.056 ± 0.065. As for “Scaffold attachment factor B1 V48M, Q15424”, the figure is -0.083 ± 0.082.

Turning to “Scaffold attachment factor B1 V48N, Q15424”, the abundance fitness is -0.362 ± 0.11.

In turn, “Scaffold attachment factor B1 V48P, Q15424” displayed an abundance fitness of -0.691 ± 0.091.

Consider “Scaffold attachment factor B1 V48Q, Q15424”, for which the abundance fitness is -0.388 ± 0.096. The result for “Scaffold attachment factor B1 V48R, Q15424” reads -0.078 ± 0.057; that for “Scaffold attachment factor B1 V48S, Q15424”, -0.255 ± 0.059. As for “Scaffold attachment factor B1 V48T, Q15424”, the figure is -0.254 ± 0.083; as for “Scaffold attachment factor B1 V48W, Q15424”, -0.281 ± 0.062; as for “Scaffold attachment factor B1 V56A, Q15424”, -0.101 ± 0.059. The result for “Scaffold attachment factor B1 V56C, Q15424” reads -0.177 ± 0.095.

In turn, “Scaffold attachment factor B1 V56E, Q15424” returned an abundance fitness of -0.15 ± 0.078. Regarding “Scaffold attachment factor B1 V56F, Q15424”, the abundance fitness was -0.414 ± 0.072. As for “Scaffold attachment factor B1 V56G, Q15424”, the figure is -0.305 ± 0.063. The substance “Scaffold attachment factor B1 V56H, Q15424” returned an abundance fitness of -0.226 ± 0.076. As for “Scaffold attachment factor B1 V56I, Q15424”, the figure is -0.126 ± 0.067; as for “Scaffold attachment factor B1 V56K, Q15424”, -0.197 ± 0.064. The result for “Scaffold attachment factor B1 V56M, Q15424” reads -0.16 ± 0.07.

Regarding “Scaffold attachment factor B1 V56N, Q15424”, the abundance fitness is -0.169 ± 0.064. Consider “Scaffold attachment factor B1 V56Q, Q15424”, for which the abundance fitness was -0.249 ± 0.083. As for “Scaffold attachment factor B1 V56R, Q15424”, the figure is -0.121 ± 0.054; as for “Scaffold attachment factor B1 V56S, Q15424”, -0.129 ± 0.049; as for “Scaffold attachment factor B1 V56T, Q15424”, -0.202 ± 0.069.

In turn, “Scaffold attachment factor B1 V56W, Q15424” returned an abundance fitness of -0.476 ± 0.052. Substance “Scaffold attachment factor B1 V56Y, Q15424” gave an abundance fitness of -0.345 ± 0.07.
